How the values were obtained:
[1] = test system: L3MBTL2; test: ELISA; details: ELISA: 20 mM Tris-HCl pH 7.5, 150 mM NaCl, 20 mM KCl, 0.02% IGEPAL, 1 mM DTT, 1 h at room temperature, 50 uL of 50 nM biotinylated DNA per well
[2] = test system: MPG; test: ELISA; details: all C outside primers replaced by 5-formylcytosine (dfCTP in PCR); ELISA: 20 mM Tris-HCl pH 7.5, 150 mM NaCl, 20 mM KCl, 0.02% IGEPAL, 1 mM DTT, 1 h at room temperature; 50 uL of 50 nM biotinylated DNA per well

Substance	Kd ([1]; all C outside primers replaced by 5-formylcytosine (dfCTP in PCR)) [nM]	Kd [2] [nM]	Kd [1] [nM]
Fgf15 promoter probe, 5fC	37.1	13.4	–
Fgf15 promoter probe, C	–	–	81.2

— paper PMC4014808
